Experimental data published in the supplement of paper PMC10724198.
± gives the standard deviation of the averaged measurements.

These sequences were tested on Saccharomyces cerevisiae (assay: protein stability index of tFT-peptide fusion in wild type (PSI (0-1 scale)); higher = more stable (slower turnover)). Conditions: genetic background: wild type.
Description: (§1)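 MPS profiling in S. cerevisiae of two library types built from selected 12-aa C-degron peptides (IN1, IN2, LN1, LN3, VN2, R1-R5, W1-W3, Atg1 and Rpa12 C-termini): saturation mutagenesis libraries and C-terminal +1 capping libraries (13 aa). Each peptide is fused to the C-terminus of a sfGFP-mCherry timer, after a GGGS linker. Cells are FACS-sorted into 8 mCherry/sfGFP bins and sequenced. PSI runs from 0 (unstable) to 1 (stable), measured once in wild type and in the das1Δ or doa10Δ background.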
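For protein stability index of tFT-peptide fusion in deletion strain of DAS1 in this document: PSI is a weighted mean of each variant's read distribution over the sorted stability bins, computed only for variants having over 10 reads in total.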
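For protein stability index of tFT-peptide fusion in wild type in this document: PSI derived as read-weighted mean over the 8 sorting bins, only variants exceeding 10 total reads kept, mCherry placed adjacent to the peptide and sfGFP distal.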

Sequence | protein stability index
ADWRVGLWRGAS | 0.519
APWRVGLWRGAS | 0.512
ARERVGLWRGAS | 0.609
ARLRVGLWRGAS | 0.581
ARNRVGLWRGAS | 0.606
ARWNVGLWRGAS | 0.322
ARWRLGLWRGAS | 0.458
ARWRMGLWRGAS | 0.605
ARWRVGLTRGAS | 0.664
ARWRVGLWAGAS | 0.599
ARWRVGLWGGAS | 0.554
ARWRVGLWIGAS | 0.367
ARWRVGLWRGAD | 0.694
ARWRVGLWRGAR | 0.663
ARWRVGLWRGAY | 0.598
ARWRVGLWRGHS | 0.602
ARWRVGLWRTAS | 0.0835
ARWRVGLWVGAS | 0.468
ARWRVGLYRGAS | 0.683
ARWRVGTWRGAS | 0.535
ARWRVKLWRGAS | 0.357
ARWRVLLWRGAS | 0.4

Sequence | protein stability index
ASLAASFWRVVG | 0.135
ASWRVGLWRGAS | 0.516
AVVYLSCVACIN | 0.0207
CKSCGYKFRTNN | 0.276
CTSCCYKFRTNN | 0.211
CTSCEYKFRTNN | 0.457
CTSCGQKFRTNN | 0.448
CTSCGYEFRTNN | 0.64
CTSCGYHFRTNN | 0.258
CTSCGYKFITNN | 0.325
CTSCGYKFRGNN | 0.682
CTSCGYKFRHNN | 0.555
CTSCGYKFRKNN | 0.23
CTSCGYKFRTNNI | 0.716
CTSCGYKFRTNNP | 0.698
CTSCGYKFRTNNR | 0.707
CTSCGYKFRTNNY | 0.677
CTSCGYKFRTPN | 0.689
CTSCGYKFRTRN | 0.534
CTSCGYKFRVNN | 0.282
CTSCGYKFRWNN | 0.49
CTSCGYKFRYNN | 0.369

These sequences were tested on Saccharomyces cerevisiae (assay: protein stability index of tFT-peptide fusion (C-terminal peptide) (PSI (0-1 scale)); higher = more stable (slower turnover)). Conditions: genetic background: das1 deletion; temperature: 30 C.
Description: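 MPS profiling in S. cerevisiae of the yeast C-terminome library: the last 12 aa of each annotated ORF are fused to the C-terminus of a sfGFP-mCherry timer, after a GGGS linker. Cells are FACS-sorted into 8 mCherry/sfGFP bins and deep-sequenced. PSI runs from 0 (unstable) to 1 (stable); wild type and das1Δ backgrounds, two technical replicates each.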

Sequence | protein stability index
VSNASNGCVLDA [ILV3 C-terminal 12 aa] | 0.70459 ± 3.7e-05
VTSGKAHFVLYN [SIM1 C-terminal 12 aa] | 0.695 ± 0.017
VVERTRQAHFAI [YEF1 C-terminal 12 aa] | 0.676 ± 0.023
VVTYTLKVDLKV [YLR152C C-terminal 12 aa] | 0.469 ± 0.025
VVVVVPAVVKTR [SSO1 C-terminal 12 aa] | 0.503 ± 0.011
VVYYQMRCKKMT [BUD26 C-terminal 12 aa] | 0.678 ± 0.032
VYVENPIRLFHH [ADE16 C-terminal 12 aa] | 0.712 ± 0.0083
WAVICFCSGIHK [YMR027W C-terminal 12 aa] | 0.5858 ± 0.0021
WDFKKQGFASRD [PDA1 C-terminal 12 aa] | 0.696 ± 0.01
WERTMRDLKLIH [ALG1 C-terminal 12 aa] | 0.742 ± 0.027
WEVVTGIRKLLI [PEX12 C-terminal 12 aa] | 0.68 ± 0.008
WFSCSLIFRNSW [YJR140W-A C-terminal 12 aa] | 0.6314 ± 0.0035
WSNNDDMEQNPW [YPR089W C-terminal 12 aa] | 0.7236 ± 0.0055
WTTEPYLQRIIW [DIE2 C-terminal 12 aa] | 0.753 ± 0.0089
WYEDEDSGDDDM [DML1 C-terminal 12 aa] | 0.698 ± 0.012
YAPDVVRSLENL [RRP42 C-terminal 12 aa] | 0.7271 ± 0.0014
YAVKDKIETLLI [SNU13 C-terminal 12 aa] | 0.7019 ± 0.0055
YAYMLYYERVNK [UBP16 C-terminal 12 aa] | 0.675 ± 0.02
YDANSWKQIKSC [PCL5 C-terminal 12 aa] | 0.7002 ± 0.0065
YDRDAKNDRSTT [YHL017W C-terminal 12 aa] | 0.705 ± 0.023
YEEFALRSGSSS [AFG2 C-terminal 12 aa] | 0.715 ± 0.022
YEGPTLTEFEDA [CYB2 C-terminal 12 aa] | 0.6905 ± 0.0043
YFFSSDRAIFNA [YGL041C-B C-terminal 12 aa] | 0.731 ± 0.022
YFNKTEFLLADN [MRPL17 C-terminal 12 aa] | 0.713 ± 0.018

Sequence | protein stability index
YIFQTYVSVDSK [YAR047C C-terminal 12 aa] | 0.62 ± 0.036
YILQKQIIEDVE [SFH5 C-terminal 12 aa] | 0.693 ± 0.0056
YINDISRTWNAN [MNT3 C-terminal 12 aa] | 0.68 ± 0.0086
YIWKYYADSLFE [CSM2 C-terminal 12 aa] | 0.736 ± 0.013
YKDVQDAIRDSL [URA6 C-terminal 12 aa] | 0.708 ± 0.012
YKELVKNIESKL [CIT2 C-terminal 12 aa] | 0.752 ± 0.024
YKERDLIDRSAY [VTS1 C-terminal 12 aa] | 0.681 ± 0.014
YKKAATLISNIL [DNM1 C-terminal 12 aa] | 0.71 ± 0.017
YKQREYYTGVAW [ERG28 C-terminal 12 aa] | 0.70264 ± 0.0005
YLAFRLREFNKL [RSC1 C-terminal 12 aa] | 0.787 ± 0.05
YLKEYEFSQKDF [PFS1 C-terminal 12 aa] | 0.725 ± 0.01
YLRFKENPEEKW [AIM29 C-terminal 12 aa] | 0.711 ± 0.011
YNSGTEGTRFQI [TAR1 C-terminal 12 aa] | 0.707 ± 0.018
YQVSIAKVPRLT [BUD5 C-terminal 12 aa] | 0.711 ± 0.0095
YRCEKISQVLVI [CTF13 C-terminal 12 aa] | 0.461 ± 0.036
YRNIPESKPQGS [YIR021W-A C-terminal 12 aa] | 0.6812 ± 0.0038
YRVARKPSQPVM [MTO1 C-terminal 12 aa] | 0.685 ± 0.012
YVASHESQKADE [RRP5 C-terminal 12 aa] | 0.6883 ± 0.0054
YVKNLLTRFFTR [FRT1 C-terminal 12 aa] | 0.7184 ± 0.0033
YVVTSDEHPKTL [SIR2 C-terminal 12 aa] | 0.724 ± 0.0073
YWILKSNPTNES [YNL092W C-terminal 12 aa] | 0.742 ± 0.018
YWRKQYPEVDLP [UIP3 C-terminal 12 aa] | 0.728 ± 0.018
YYYYNKYKEFYP [TMH11 C-terminal 12 aa] | 0.736 ± 0.039

Same assay, conditions: genetic background: wild type; temperature: 30 C

Sequence | protein stability index
VSNASNGCVLDA [ILV3 C-terminal 12 aa] | 0.707 ± 0.013
VTSGKAHFVLYN [SIM1 C-terminal 12 aa] | 0.655 ± 0.017
VVERTRQAHFAI [YEF1 C-terminal 12 aa] | 0.6752 ± 0.0036
VVTYTLKVDLKV [YLR152C C-terminal 12 aa] | 0.491 ± 0.012
VVVVVPAVVKTR [SSO1 C-terminal 12 aa] | 0.5221 ± 0.0046
VVYYQMRCKKMT [BUD26 C-terminal 12 aa] | 0.4177 ± 0.0039
VYVENPIRLFHH [ADE16 C-terminal 12 aa] | 0.7235 ± 0.0019
WAVICFCSGIHK [YMR027W C-terminal 12 aa] | 0.546 ± 0.013
WDFKKQGFASRD [PDA1 C-terminal 12 aa] | 0.6926 ± 0.003
WERTMRDLKLIH [ALG1 C-terminal 12 aa] | 0.64 ± 0.033
WEVVTGIRKLLI [PEX12 C-terminal 12 aa] | 0.401 ± 0.014
WFSCSLIFRNSW [YJR140W-A C-terminal 12 aa] | 0.618 ± 0.053
WSNNDDMEQNPW [YPR089W C-terminal 12 aa] | 0.713 ± 0.029
WTTEPYLQRIIW [DIE2 C-terminal 12 aa] | 0.718 ± 0.016
WYEDEDSGDDDM [DML1 C-terminal 12 aa] | 0.674 ± 0.014
YAPDVVRSLENL [RRP42 C-terminal 12 aa] | 0.695 ± 0.043
YAVKDKIETLLI [SNU13 C-terminal 12 aa] | 0.725 ± 0.12
YAYMLYYERVNK [UBP16 C-terminal 12 aa] | 0.675 ± 0.041
YDANSWKQIKSC [PCL5 C-terminal 12 aa] | 0.203 ± 0.016
YDRDAKNDRSTT [YHL017W C-terminal 12 aa] | 0.665 ± 0.061
YEEFALRSGSSS [AFG2 C-terminal 12 aa] | 0.676 ± 0.014
YEGPTLTEFEDA [CYB2 C-terminal 12 aa] | 0.703 ± 0.015
YFFSSDRAIFNA [YGL041C-B C-terminal 12 aa] | 0.7029 ± 0.0011
YFNKTEFLLADN [MRPL17 C-terminal 12 aa] | 0.677 ± 0.025

Sequence | protein stability index
YIFQTYVSVDSK [YAR047C C-terminal 12 aa] | 0.58 ± 0.015
YILQKQIIEDVE [SFH5 C-terminal 12 aa] | 0.65 ± 0.043
YINDISRTWNAN [MNT3 C-terminal 12 aa] | 0.679 ± 0.043
YIWKYYADSLFE [CSM2 C-terminal 12 aa] | 0.685 ± 0.043
YKDVQDAIRDSL [URA6 C-terminal 12 aa] | 0.6855 ± 0.0037
YKELVKNIESKL [CIT2 C-terminal 12 aa] | 0.837 ± 0.015
YKERDLIDRSAY [VTS1 C-terminal 12 aa] | 0.706 ± 0.032
YKKAATLISNIL [DNM1 C-terminal 12 aa] | 0.72 ± 0.074
YKQREYYTGVAW [ERG28 C-terminal 12 aa] | 0.694 ± 0.02
YLAFRLREFNKL [RSC1 C-terminal 12 aa] | 0.726 ± 0.049
YLKEYEFSQKDF [PFS1 C-terminal 12 aa] | 0.734 ± 0.025
YLRFKENPEEKW [AIM29 C-terminal 12 aa] | 0.753 ± 0.086
YNSGTEGTRFQI [TAR1 C-terminal 12 aa] | 0.6849 ± 0.0015
YQVSIAKVPRLT [BUD5 C-terminal 12 aa] | 0.4878 ± 0.0037
YRCEKISQVLVI [CTF13 C-terminal 12 aa] | 0.495 ± 0.047
YRNIPESKPQGS [YIR021W-A C-terminal 12 aa] | 0.6624 ± 0.0038
YRVARKPSQPVM [MTO1 C-terminal 12 aa] | 0.683 ± 0.027
YVASHESQKADE [RRP5 C-terminal 12 aa] | 0.741 ± 0.072
YVKNLLTRFFTR [FRT1 C-terminal 12 aa] | 0.732 ± 0.03
YVVTSDEHPKTL [SIR2 C-terminal 12 aa] | 0.6955 ± 0.0043
YWILKSNPTNES [YNL092W C-terminal 12 aa] | 0.7246 ± 0.0071
YWRKQYPEVDLP [UIP3 C-terminal 12 aa] | 0.744 ± 0.017
YYYYNKYKEFYP [TMH11 C-terminal 12 aa] | 0.704 ± 0.029

The sequences below were run on Saccharomyces cerevisiae (assay: protein stability index of tFT-peptide fusion in deletion strain of DAS1 (PSI (0-1 scale)); higher = more stable (slower turnover)). Conditions: not given.
Description: as §1

Sequence | protein stability index
ADWRVGLWRGAS | 0.729
APWRVGLWRGAS | 0.701
ARERVGLWRGAS | 0.726
ARLRVGLWRGAS | 0.69
ARNRVGLWRGAS | 0.693
ARWNVGLWRGAS | 0.662
ARWRLGLWRGAS | 0.687
ARWRMGLWRGAS | 0.689
ARWRVGLTRGAS | 0.679
ARWRVGLWAGAS | 0.627
ARWRVGLWGGAS | 0.674
ARWRVGLWIGAS | 0.572
ARWRVGLWRGAD | 0.672
ARWRVGLWRGAR | 0.666
ARWRVGLWRGAY | 0.682
ARWRVGLWRGHS | 0.691
ARWRVGLWRTAS | 0.684
ARWRVGLWVGAS | 0.545
ARWRVGLYRGAS | 0.641
ARWRVGTWRGAS | 0.687
ARWRVKLWRGAS | 0.684
ARWRVLLWRGAS | 0.628

Sequence | protein stability index
ASLAASFWRVVG | 0.695
ASWRVGLWRGAS | 0.703
AVVYLSCVACIN | 0.038
CKSCGYKFRTNN | 0.697
CTSCCYKFRTNN | 0.661
CTSCEYKFRTNN | 0.684
CTSCGQKFRTNN | 0.686
CTSCGYEFRTNN | 0.675
CTSCGYHFRTNN | 0.695
CTSCGYKFITNN | 0.709
CTSCGYKFRGNN | 0.686
CTSCGYKFRHNN | 0.705
CTSCGYKFRKNN | 0.692
CTSCGYKFRTNNI | 0.699
CTSCGYKFRTNNP | 0.69
CTSCGYKFRTNNR | 0.705
CTSCGYKFRTNNY | 0.704
CTSCGYKFRTPN | 0.71
CTSCGYKFRTRN | 0.683
CTSCGYKFRVNN | 0.687
CTSCGYKFRWNN | 0.737
CTSCGYKFRYNN | 0.702
